This note sets out measurements from the RNAGym collection of RNA variant scans (doi:10.1021/acssynbio.7b00057).

To fix the notation:
B1: Pistol ribozyme (parent)
chain: GGGUCGUUGUUCCAUAAUCGCGUGGAUAUGGCACGCAAGUUUCUACCGGGCACCGUAAAUGUCCGACUGGAGCCGUUCGGGCGGCUAUAAACAGACCUCAGGCCCGAAGCGUGGCGGCACCUGCCGCCGGUGGUAAAAAAGAUCGGAAGAGCACACGUCU

This series covers variants of B1. The experiment in a line: aptazyme ON/OFF ratio, guanine; higher = stronger switching; co-transcriptional cleavage with and without guanine.
For U7G U8C G9A U10C C12A C13A, the “aptazyme ON/OFF ratio” value stood at 1.12. Turning to U7G U8C G9A U10C C12A C13U, the “aptazyme ON/OFF ratio” value came out at 1.19.

Take U7G U8A U11C C12A C13A: the “aptazyme ON/OFF ratio” value was 1.23.

With U7G U8A U11C C12A C13U, the “aptazyme ON/OFF ratio” value came out at 1.46. The value for U7G U8A U11C C12A C13G was 1.36.

For the variant U7G U8C G9A U10G U11C C12G C13G, the “aptazyme ON/OFF ratio” value worked out at 1.02. To U7G U8C G9A U10G U11C C12G C13U belongs 1.18. The value for U7G U8C G9A U10G U11C C12G C13A was 1.14. For the variant U7G U8C G9A U10A U11G C12U C13G, the “aptazyme ON/OFF ratio” value turned out to be 1.2.

In the case of U7G U8C G9A U10A U11G C12U C13A, the “aptazyme ON/OFF ratio” value was determined as 1.16. For the variant U7G U8C G9A U10A U11G C12U C13U, the “aptazyme ON/OFF ratio” value was determined as 1.21. As to U7G U8C G9A U10C U11C C12U C13U, the “aptazyme ON/OFF ratio” value is 1.06. In the case of U7G U8C G9A U10C U11C C12U C13A, the “aptazyme ON/OFF ratio” value was determined as 1.04. As for U7G U8C G9A U10C U11C C12U C13G, the “aptazyme ON/OFF ratio” value came out at 1.04. The value for U7G U8C G9A C12G C13A was 1.05; that for U7G U8C G9A C12G C13G was 1.04. As to U7G U8C G9A C12G C13U, the “aptazyme ON/OFF ratio” value was 1.03. The value for U7G U8C G9A U10A C12U C13G was 1.13. For the variant U7G U8C G9A U10A C12U C13U, the “aptazyme ON/OFF ratio” value is 1.05. To U7G U8C G9A U10A C12U C13A belongs 1.15; to U7G U8C, 1.32; to U7G U8C G9A U10G U11G C12U, 1.35. In the case of U7G U8C G9A U10G U11G C12G, the “aptazyme ON/OFF ratio” value came to 1.27.

As to U7G U8C G9A U10G U11G C12A, the “aptazyme ON/OFF ratio” value worked out at 1.3. On to U7G U8C G9A U10A U11C C12G C13U, for which the “aptazyme ON/OFF ratio” value was 1.09. For U7G U8C G9A U10A U11C C12G C13G, the “aptazyme ON/OFF ratio” value turned out to be 1.03. The value for U7G U8C G9A U10A U11C C12G C13A was 1.08. Regarding U7G U8A U10G U11C C13A, the “aptazyme ON/OFF ratio” value is 1.21.

In the case of U7G U8A U10G U11C C13U, the “aptazyme ON/OFF ratio” value was determined as 1.5.

With U7G U8A U10G U11C C13G, the “aptazyme ON/OFF ratio” value stood at 1.16. Turning to U7G U8C G9A U10C U11C C12G C13A, the “aptazyme ON/OFF ratio” value was found to be 1.15. Take U7G U8C G9A U10C U11C C12G C13U: the “aptazyme ON/OFF ratio” value was 1.09.

For the variant U7G U8C G9A U10C U11C C12G C13G, the “aptazyme ON/OFF ratio” value was 1.05. With U7G U8A U10G U11A C12G C13U, the “aptazyme ON/OFF ratio” value was determined as 1.23. U7G U8A U10G U11A C12G C13G: the “aptazyme ON/OFF ratio” value worked out at 1.25. The value for U7G U8A U10G U11A C12G C13A was 1.11; that for U7G U8C G9A U10C C13A was 1.07. In the case of U7G U8C G9A U10C C13G, the “aptazyme ON/OFF ratio” value is 1.08. U7G U8C G9A U10C C13U: the “aptazyme ON/OFF ratio” value was 1.58. In the case of U7G U8C C12A, the “aptazyme ON/OFF ratio” value is 1.05. To U7G U8C C12G belongs 1.12. As to U7G U8C C12U, the “aptazyme ON/OFF ratio” value is 1.2. Take U7G U8C G9A U10G U11C C12A: the “aptazyme ON/OFF ratio” value turned out to be 1.3. The value for U7G U8C G9A U10G U11C C12U was 1.09.

With U7G U8C G9A U10G U11C C12G, the “aptazyme ON/OFF ratio” value was found to be 1.2. Regarding U7G U8C G9A U11A C12G, the “aptazyme ON/OFF ratio” value came to 1.1. U7G U8C G9A U11A C12A: the “aptazyme ON/OFF ratio” value is 1.2. U7G U8C G9A U11A C12U: the “aptazyme ON/OFF ratio” value is 1.36. U7G U8C G9A U10A U11A C12G C13U: the “aptazyme ON/OFF ratio” value came to 1.15. As for U7G U8C G9A U10A U11A C12G C13G, the “aptazyme ON/OFF ratio” value amounted to 1.13. For the variant U7G U8C G9A U10A U11A C12G C13A, the “aptazyme ON/OFF ratio” value amounted to 1.13. In the case of U7G U8A U11C C12A, the “aptazyme ON/OFF ratio” value is 1.29. U7G U8A U11C C12G: the “aptazyme ON/OFF ratio” value was determined as 1.24. Take U7G U8A U11C C12U: the “aptazyme ON/OFF ratio” value is 1.41. As for U7G U8C G9A U10A U11A C12A, the “aptazyme ON/OFF ratio” value was 1.28. The value for U7G U8C G9A U10A U11A C12G was 1.22; that for U7G U8C G9A U10A U11A C12U was 1.4. The value for U7G U8C G9A U10C U11C C12G was 1.16; that for U7G U8C G9A U10C U11C C12U was 1.09; that for U7G U8C G9A U10C U11C C12A was 1.16. For the variant U7G U8C C12U C13A, the “aptazyme ON/OFF ratio” value is 1.05. U7G U8C C12U C13U: the “aptazyme ON/OFF ratio” value was determined as 1.07. As to U7G U8C C12U C13G, the “aptazyme ON/OFF ratio” value worked out at 1.19. Turning to U7G U8A U10G U11C C12U C13U, the “aptazyme ON/OFF ratio” value came to 1.1. As to U7G U8A U10G U11C C12U C13G, the “aptazyme ON/OFF ratio” value is 1.52. Take U7G U8A U10G U11C C12U C13A: the “aptazyme ON/OFF ratio” value stood at 1.46.

Take U7G U8C G9A U10A U11G C12A C13A: the “aptazyme ON/OFF ratio” value came out at 1.06. As for U7G U8C G9A U10A U11G C12A C13G, the “aptazyme ON/OFF ratio” value came out at 1.12. For the variant U7G U8C G9A U10A U11G C12A C13U, the “aptazyme ON/OFF ratio” value came to 1.09. Consider U7G U8C G9A U10C U11A C12U, for which the “aptazyme ON/OFF ratio” value is 1.18.

Consider U7G U8C G9A U10C U11A C12G, for which the “aptazyme ON/OFF ratio” value turned out to be 1.18. The value for U7G U8C G9A U10C U11A C12A was 1.33; that for U7G U8C G9A U10C U11C C13U was 1.01; that for U7G U8C G9A U10C U11C C13A was 1.02. The value for U7G U8C G9A U10C U11C C13G was 1.03. As for U7G U8C G9A U10G U11G C12G C13U, the “aptazyme ON/OFF ratio” value was found to be 1.14.

Take U7G U8C G9A U10G U11G C12G C13A: the “aptazyme ON/OFF ratio” value was determined as 1.13. For U7G U8C G9A U10G U11G C12G C13G, the “aptazyme ON/OFF ratio” value stood at 1.2. For the variant U7G U8C C12G C13G, the “aptazyme ON/OFF ratio” value was 1.08. To U7G U8C C12G C13A belongs 1.08; to U7G U8C C12G C13U, 1.19.

Take U7G U8A U10G U11G C12A C13G: the “aptazyme ON/OFF ratio” value amounted to 1.38. For the variant U7G U8A U10G U11G C12A C13U, the “aptazyme ON/OFF ratio” value amounted to 1.73. Consider U7G U8A U10G U11G C12A C13A, for which the “aptazyme ON/OFF ratio” value stood at 1.16.
